Measurements taken from article doi:10.1101/492215.

Target: HTT^1-3144 Q23, C-terminally FLAG-tagged (human)
Assay: SEC-MALS

stoichiometry N: 2
Substance: HTT^1-3144 Q23, C-terminally FLAG-tagged (natural protein)
